# From patent US20220356230A1
# Values joined by “and” are separate entries in the source; they are usually repeats but may differ in a detail not shown here. Identical values can stand only once.
# Assays:
# [1] = molecular target: SARS-CoV-2 Spike Protein (Accession number MN908947.3, amino acids 16-1211) on pseudotyped VSV VLPs (SARS-CoV-2) (UniProt P0DTC2)
# [2] = molecular target: VLPs expressing VSV only (negative binding control) (vesicular stomatitis virus)
# [3] = molecular target: Bt-MERS.hFc (mAb2664-L2) (MERS-CoV) (UniProt K9N5Q8); assay: Luminex bead assay, supernatant
# [4] = molecular target: MERS.hFc (mAb2664-L1) (MERS-CoV) (UniProt K9N5Q8); assay: Luminex bead assay, supernatant
# [5] = molecular target: MERS.mFc (mAb2663-L1) (MERS-CoV) (UniProt K9N5Q8); assay: Luminex bead assay, supernatant
# [6] = molecular target: SARS-CoV-2 spike protein (S-wt, Wuhan-Hu-1, NCBI Accession Number MN908947.3) on VSV-SARS-CoV-2-S pseudoparticles (SARS-CoV-2) (UniProt P0DTC2); assay: cell-based or functional assay
substance,measurement,setting,value
IgG1 Isotype Control (antibody),Ratio VSV/Spike:VSV,[1],1 and 2
mAb10933 (antibody),Antibody Binding Signal (RLU),[2],82 RLU and 29 RLU
same,Binding signal (MFI),[3],26 MFI
same,Binding signal (MFI),[4],21 MFI
same,Binding signal (MFI),[5],22 MFI
mAb10934 (antibody),mAb neutralization potency (IC50 (M)),[6],5.44e-11 M
same,Binding signal (MFI),[5],77 MFI
mAb10936 (antibody),mAb neutralization potency (IC50 (M)),[6],1.11e-10 M
same,Binding signal (MFI),[3],32 MFI
same,Binding signal (MFI),[4],26 MFI
same,Binding signal (MFI),[5],32 MFI
mAb10987 (antibody),mAb neutralization potency (IC50 (M)),[6],4.06e-11 M
